According to patent US20120316071A1 (published 2012):
Each block holds one binder with its values, some of them ahead of it.

Key:
[1] = biological target: T1, rHuman ErbB2/Fc Chimera, CF (R&D Systems Cat#1129-ER) (human, UniProt P04626 23-652); test: Multispot ECL (MSD) binding screen, antigen spotted on plate; hit = signal/blank >= 4
T1 construct: Bought Fc chimera; also called human epidermal growth factor 2 receptor; Fc part of the bought chimera not given

[2] = biological target: T2, rHuman IGF-1 sR, (IGF-1 sR), CF (R&D Systems Cat#391-GR) (human, UniProt P08069 31-932); test: ECL multispot (MSD), antigen spotted, 10 nM Fab; blank spot of this row 271
T2 construct: Bought recombinant soluble receptor; also called insulin-like growth factor-1 soluble receptor

[3] = biological target: T3, rHuman P-Cadherin/Fc Chimera, CF (R&D Systems Cat#861-PC) (human, UniProt P22223 108-654); test: as above
T3 construct: Bought recombinant protein; Fc part of the bought chimera not given

[4] = biological target: T4, rHuman Erythropoietin R/Fc Chimera, CF (R&D Systems Cat#963-ER) (human, UniProt P19235 25-250); test: as above
T4 construct: Bought recombinant protein; also called EPO R; EPO R/Fc; Fc part of the bought chimera not given
T4 sequence (looked up): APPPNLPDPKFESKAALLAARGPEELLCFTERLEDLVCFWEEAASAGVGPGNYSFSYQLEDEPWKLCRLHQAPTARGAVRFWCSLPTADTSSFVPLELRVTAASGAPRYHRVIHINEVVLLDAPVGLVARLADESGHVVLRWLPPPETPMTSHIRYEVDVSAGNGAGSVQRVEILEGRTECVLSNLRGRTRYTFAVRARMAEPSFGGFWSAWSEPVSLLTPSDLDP

[5] = biological target: T5, rHuman ErbB2/Fc Chimera, CF (R&D Systems Cat#1129-ER) (human, UniProt P04626 23-652); test: as above
T5 construct: Bought recombinant protein; also called human epidermal growth factor 2 receptor; Fc part of the bought chimera not given

[6] = biological target: T6, rHuman EGF R/Fc Chimera, CF (R&D Systems Cat#344-ER) (human, UniProt P00533 25-645); test: as above
T6 construct: Bought recombinant protein; also called epidermal growth factor receptor; Fc part of the bought chimera not given

[7] = biological target: T7, rHuman Notch-1/Fc Chimera, CF (R&D Systems Cat#3647-TK) (human, UniProt P46531 19-526); test: as above
T7 construct: Bought recombinant protein; Fc part of the bought chimera not given

[8] = biological target: T8, rHuman CD44/Fc Chimera, CF (R&D Systems Cat#3660-CD) (human, UniProt P16070 21-220); test: as above
T8 construct: Bought recombinant protein; Fc part of the bought chimera not given

[9] = biological target: T9, rHuman HGF R/c-MET/Fc Chimera (human, UniProt P08581 25-932); test: ECL multispot (MSD) binding assay; antigen spotted on plate, Fab in solution;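 note: purified Fab bound for 1 h at 20 °C, detected with a TAG-labelled antibody, electrochemiluminescence compared with each well's blank, signal-to-blank ratio of at least 4 scored as hit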
T9 construct: also called HGF R/Fc

[10] = biological target: T10, rHuman Notch-1/Fc Chimera (human, UniProt P46531 19-526); test: as above
T10 construct: Bought from R&D Systems (Cat#3647-TK)

rHuman CD44/Fc Chimera = rHuman CD44/Fc Chimera (human, UniProt P16070 21-220); test: as above
[11] = biological target: rHuman IGF-1 sR (insulin-like growth factor-1 soluble receptor) (human, UniProt P08069 31-932); test: as above
[12] = biological target: T11, rHuman P-Cadherin/Fc Chimera (human, UniProt P22223 108-654); test: as above
T11 construct: Bought from R&D Systems (Cat#861-PC)

[13] = biological target: T12, rHuman Erythropoietin R/Fc Chimera (human, UniProt P19235 25-250); test: as above
T12 construct: also called EPO R; EPO R/Fc
T12 sequence (looked up): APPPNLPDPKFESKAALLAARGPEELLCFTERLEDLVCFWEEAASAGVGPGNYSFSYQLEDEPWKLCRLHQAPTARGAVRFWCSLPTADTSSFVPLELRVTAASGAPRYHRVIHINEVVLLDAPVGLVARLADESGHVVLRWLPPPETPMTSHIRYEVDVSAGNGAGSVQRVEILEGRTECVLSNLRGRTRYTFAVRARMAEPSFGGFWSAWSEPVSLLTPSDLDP

[14] = biological target: T13, Recombinant Human DLL4 (delta-like protein 4) (human, UniProt Q9NR61 27-529); test: as above
T13 construct: Bought from R&D Systems (Cat#1506-D4/CF); also called rHuman DLL4

rHuman ErbB2/Fc Chimera = rHuman ErbB2/Fc Chimera (human, UniProt P04626 23-652); test: as above
rHuman EGF R/Fc Chimera = rHuman EGF R/Fc Chimera (human, UniProt P00533 25-645); test: as above
[15] = biological target: T14, Recombinant Human DLL4 (R&D Systems Cat#1506-D4/CF) (human, UniProt Q9NR61 27-524); test: ECL multispot (MSD) binding assay; DLL4 signal over blank spot
T14 construct: Bought recombinant protein; also called delta-like protein 4; rHuman DLL4

[16] = biological target: T14, Recombinant Human DLL4 (R&D Systems …); test: ECL multispot (MSD) binding assay; DLL4 spotted on the plate, purified Fab added

T9 sequence (P08581 25-932, change not shown): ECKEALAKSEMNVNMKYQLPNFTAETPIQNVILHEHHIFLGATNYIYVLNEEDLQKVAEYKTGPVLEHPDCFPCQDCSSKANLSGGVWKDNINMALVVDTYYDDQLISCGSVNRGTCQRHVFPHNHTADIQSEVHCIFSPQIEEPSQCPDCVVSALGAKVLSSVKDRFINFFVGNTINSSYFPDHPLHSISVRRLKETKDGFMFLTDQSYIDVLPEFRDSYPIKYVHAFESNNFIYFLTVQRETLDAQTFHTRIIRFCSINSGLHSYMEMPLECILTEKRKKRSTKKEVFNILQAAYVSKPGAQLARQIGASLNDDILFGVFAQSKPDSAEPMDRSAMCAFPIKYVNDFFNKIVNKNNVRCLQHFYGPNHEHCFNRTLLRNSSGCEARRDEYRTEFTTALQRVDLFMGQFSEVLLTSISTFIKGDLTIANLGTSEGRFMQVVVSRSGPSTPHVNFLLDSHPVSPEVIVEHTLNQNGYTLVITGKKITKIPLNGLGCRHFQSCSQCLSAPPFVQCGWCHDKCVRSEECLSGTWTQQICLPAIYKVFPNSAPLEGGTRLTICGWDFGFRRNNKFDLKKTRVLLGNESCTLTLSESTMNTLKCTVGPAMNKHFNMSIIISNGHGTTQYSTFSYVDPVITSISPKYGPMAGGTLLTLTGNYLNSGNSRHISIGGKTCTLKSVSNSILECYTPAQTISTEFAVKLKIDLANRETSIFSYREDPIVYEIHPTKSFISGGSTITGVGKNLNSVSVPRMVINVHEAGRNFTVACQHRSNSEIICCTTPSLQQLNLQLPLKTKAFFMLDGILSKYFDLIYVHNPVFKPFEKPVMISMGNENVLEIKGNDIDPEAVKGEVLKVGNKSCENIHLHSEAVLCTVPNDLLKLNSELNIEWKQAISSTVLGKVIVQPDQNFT

- binding result [1]: binds
B1: Fab VH1-69_IGHD1-1*01_IGHJ6*01 & A17_IGKJ1*01 (Fab, V domains shown)
VH: QVQLVQSGAEVKKPGSSVKVSCKASGGTFSSYAISWVRQAPGQGLEWMGGIIPIFGTANYAQKFQGRVTITADKSTSTAYMELSSLRSEDTAVYYCARGYNWNDDYYYYYGMDVWGQGTTVTVSS
VL: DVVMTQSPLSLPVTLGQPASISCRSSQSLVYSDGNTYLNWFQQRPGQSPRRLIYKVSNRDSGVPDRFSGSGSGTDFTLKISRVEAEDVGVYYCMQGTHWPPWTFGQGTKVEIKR
notes: Fab; expressed in E. coli from Plasmid A (CH1, His6 and Flag tags) and Plasmid C (kappa CL)

- Signal/Blank [15]: 281 ratio
- ECL signal [16]: 91400 ECL counts
B6: Fab VH1-46_IGHD6-6*01_IGHJ1*01 S102A/S103P/S104F/H111F (APFF) & L6_IGKJ1*01 S92G (Fab, V domains shown)
VH: QVQLVQSGAEVKKPGASVKVSCKASGYTFTSYYMHWVRQAPGQGLEWMGIINPSGGSTSYAQKFQGRVTMTRDTSTSTVYMELSSLRSEDTAVYYCAREEYAPFSAEYFQFWGQGTLVTVSS
VL: EIVLTQSPATLSLSPGERATLSCRASQSVSSYLAWYQQKPGQAPRLLIYDASNRATGIPARFSGSGSGTDFTLTISSLEPEDFAVYYCQQRGNWPPWTFGQGTKVEIKR
notes: Fab with CH1 (His6 and Flag tags) and kappa CL from the expression vectors; also called APFF & S92G

- binding result [1]: binds
B7: Fab VH2-5_IGHD7-27*01_IGHJ2*01 & L2_IGKJ1*01 (Fab, V domains shown)
VH: QITLKESGPTLVKPTQTLTLTCTFSGFSLSTSGVGVGWIRQPPGKALEWLALIYWNDDKRYSPSLKSRLTITKDTSKNQVVLTMTNMDPVDTATYYCAHRPNWGYWYFDLWGRGTLVTVSS
VL: not shown

Further lines, the binder ahead of its results:

B2: Fab VH1-46_IGHD6-6*01_IGHJ1*01 S102A/S103P/S104F G55W & L6_IGKJ1*01 (Fab, V domains shown)
VH: QVQLVQSGAEVKKPGASVKVSCKASGYTFTSYYMHWVRQAPGQGLEWMGIINPSWGSTSYAQKFQGRVTMTRDTSTSTVYMELSSLRSEDTAVYYCAREEYAPFSAEYFQHWGQGTLVTVSS
VL: not shown
notes: Tested as Fab (CH1 with His6 and Flag tags, kappa CL); also called APF G55W
- ECL signal [2]: 250
- ECL signal [3]: 391
- ECL signal [4]: 296
- ECL signal [5]: 334
- ECL signal [6]: 312
- ECL signal [7]: 327
- ECL signal [8]: 159

B3: Fab VH1-46_IGHD6-6*01_IGHJ1*01 S102A/S103P/S104F/H111F (APFF) & L6_IGKJ1*01 S92C (Fab, V domains shown)
VH: QVQLVQSGAEVKKPGASVKVSCKASGYTFTSYYMHWVRQAPGQGLEWMGIINPSGGSTSYAQKFQGRVTMTRDTSTSTVYMELSSLRSEDTAVYYCAREEYAPFSAEYFQFWGQGTLVTVSS
VL: EIVLTQSPATLSLSPGERATLSCRASQSVSSYLAWYQQKPGQAPRLLIYDASNRATGIPARFSGSGSGTDFTLTISSLEPEDFAVYYCQQRCNWPPWTFGQGTKVEIKR
notes: Tested as Fab made in E. coli: VH cloned into Plasmid A (CH1, His6 and Flag tags), kappa VL into Plasmid C (kappa CL); also called APFF / S92C
- ECL signal [9]: 589
- ECL signal [10]: 642
- ECL signal (rHuman CD44/Fc Chimera): 554
- ECL signal [11]: 642
- ECL signal [12]: 805
- ECL signal [13]: 742
- ECL signal [14]: 1230
- ECL signal (rHuman ErbB2/Fc Chimera): 526
- ECL signal (rHuman EGF R/Fc Chimera): 588

B4: Fab VH1-46_IGHD6-6*01_IGHJ1*01 S102A/S103P/S104F/H111F (APFF) & L6_IGKJ1*01 (Fab, V domains shown)
VH: QVQLVQSGAEVKKPGASVKVSCKASGYTFTSYYMHWVRQAPGQGLEWMGIINPSGGSTSYAQKFQGRVTMTRDTSTSTVYMELSSLRSEDTAVYYCAREEYAPFSAEYFQFWGQGTLVTVSS
VL: not shown
notes: Tested as an E. coli-expressed Fab; also called H:APFF & L:wt; APFF parent
- Signal/Blank [15]: 611 ratio
- ECL signal [16]: 189000 ECL counts

B5: Fab VH1-46_IGHD6-6*01_IGHJ1*01 S102A/S103P/S104F/H111F (APFF) & L6_IGKJ1*01 (Fab, V domains shown)
VH: QVQLVQSGAEVKKPGASVKVSCKASGYTFTSYYMHWVRQAPGQGLEWMGIINPSGGSTSYAQKFQGRVTMTRDTSTSTVYMELSSLRSEDTAVYYCAREEYAPFSAEYFQFWGQGTLVTVSS
VL: not shown
notes: Tested as Fab (CH1 with His6/Flag tags from Plasmid A; kappa CL from Plasmid C); also called APFF / parent; H:APFF & L:wt
- ECL signal [9]: 185
- ECL signal [11]: 336
- ECL signal [12]: 295
- ECL signal [14]: 189000
- ECL signal (rHuman ErbB2/Fc Chimera): 289
- ECL signal (rHuman EGF R/Fc Chimera): 326
